Assay results reported in US20110281938, “APTAMERS TO TISSUE FACTOR PATHWAY INHIBITOR AND THEIR USE AS BLEEDING DISORDER THERAPEUTICS” (Baxter Healthcare S.A., published 2011).

How the values were obtained:
[1] = target: T1, TFPI (tissue factor pathway inhibitor, full-length) (Homo sapiens, UniProt P10646 SEQ:1-276); test: competition; dot-blot; settings: tags: American Diagnostica 4500PC/4900PC, E. coli expressed
Protocol: Each molecule was evaluated for binding to tissue factor pathway inhibitor (TFPI) in a binding-competition assay. For these experiments, 10 nM human TFPI (American Diagnostica, Stamford, Conn., catalog #4500PC) was incubated with trace amounts of radiolabeled ARC17480 and 5000 nM, 1666.67 nM, 555.56 nM, 185.19 nM, 61.73 nM, 20.58 nM, 6.86 nM, 2.29 nM, 0.76 nM or 0.25 nM of unlabeled competitor aptamer. ARC17480 was included as a competitor in every experiment as a control. For each molecule, the percentage of radiolabeled ARC17480 bound at each competitor aptamer concentration was used for analysis. The percentage of radiolabeled ARC17480 bound was plotted as a function of aptamer concentration and fit to the equation y=(max/(1+x/IC₅₀))+int, where y=the percentage of radiolabeled ARC17480 bound, x=the concentration of aptamer, max=the maximum radiolabeled ARC17480 bound, and int=the y-intercept, to generate an IC₅₀ value for binding-competition. The IC₅₀ of each aptamer was compared to the IC₅₀ of ARC17480 that was evaluated in the same experiment. A substitution was considered tolerated in the binding-competition assay if the IC₅₀ of that molecule was not more than 5-fold greater than that of ARC17480 evaluated in the same experiment. Tolerated substitutions are indicated in Table 37 as meeting the assay criteria (“yes”) or not meeting the assay criteria (“no”).

[2] = target: T1, TFPI (tissue factor pathway inhibitor, …); test: competition; fails binding-competition criterion; settings: tags: American Diagnostica 4500PC/4900PC, E. coli expressed
Protocol: Each molecule was evaluated for binding to tissue factor pathway inhibitor (TFPI) in a binding-competition assay. For these experiments, 10 nM human TFPI (American Diagnostica, Stamford, Conn., catalog #4500PC) was incubated with trace amounts of radiolabeled ARC17480 and 5000 nM, 1666.67 nM, 555.56 nM, 185.19 nM, 61.73 nM, 20.58 nM, 6.86 nM, 2.29 nM, 0.76 nM or 0.25 nM of unlabeled competitor aptamer. ARC17480 was included as a competitor in every experiment as a control. For each molecule, the percentage of radiolabeled ARC17480 bound at each competitor aptamer concentration was used for analysis. The percentage of radiolabeled ARC17480 bound was plotted as a function of aptamer concentration and fit to the equation y=(max/(1+x/IC₅₀))+int, where y=the percentage of radiolabeled ARC17480 bound, x=the concentration of aptamer, max=the maximum radiolabeled ARC17480 bound, and int=the y-intercept, to generate an IC₅₀ value for binding-competition. The IC₅₀ of each aptamer was compared to the IC₅₀ of ARC17480 that was evaluated in the same experiment. A substitution was considered tolerated in the binding-competition assay if the IC₅₀ of that molecule was not more than 5-fold greater than that of ARC17480 evaluated in the same experiment. Tolerated substitutions are indicated in Table 38 as meeting the assay criteria (“yes”) or not meeting the assay criteria (“no”).

T1 sequence (P10646 29-304): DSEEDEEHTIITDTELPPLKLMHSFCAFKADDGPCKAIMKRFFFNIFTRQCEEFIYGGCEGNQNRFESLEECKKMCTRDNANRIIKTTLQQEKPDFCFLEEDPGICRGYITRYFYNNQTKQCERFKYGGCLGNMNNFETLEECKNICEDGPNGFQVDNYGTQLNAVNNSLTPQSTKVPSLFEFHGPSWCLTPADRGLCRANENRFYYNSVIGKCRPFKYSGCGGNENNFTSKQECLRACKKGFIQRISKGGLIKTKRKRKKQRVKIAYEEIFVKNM

Binder | binding signal [1] [fold IC50 vs ARC17480] | binding signal [2]
GGAAUAUACUUGGCUCGUUAGGUGCGUAUAUA (XNA, 2'-OMe except dC9, dC14, dC25; 2'-F C16; 3' idT) [ARC19495] | ≤ 5 | 
GGAAUAUACUUGGCUCGUUAGGUGCGUAUAUA (XNA, 2'-OMe except dC9, dC14, dC16, dC25 and dA3; 3' idT) [ARC19450] | ≤ 5 | 
GGAAUAUACUUGGCUCGUUAGGUGCGUAUAUA (XNA, 2'-OMe except dC9, dC14, dC16, dC25 and dG12; 3' idT) [ARC19458] | ≤ 5 | 
GGAAUAUACUUGGCUCGUUAGGUGCGUAUAUA (XNA, 2'-OMe except dC9, dC14, dC16, dC25 and dG2; 3' idT) [ARC19449] | ≤ 5 | 
GGAAUAUACUUGGCUCGUUAGGUGCGUAUATA (XNA, 2'-OMe except dC9, dC14, dC16, dC25 and dT31; 3' idT) [ARC19474] | ≤ 5 | 
GGAAUAUACUUGGCTCGUUAGGUGCGUAUAUA (XNA, 2'-OMe except dC9, dC14, dC16, dC25 and dT15; 3' idT) [ARC19460] | ≤ 5 | 
GGAAUAUACUUGGCUCGUUAGGTGCGUAUAUA (XNA, 2'-OMe except dC9, dC14, dC16, dC25 and dT23; 3' idT) [ARC19467] | ≤ 5 | 
GGAAUAUACUUGGCUCGUUAGGUGCGUAUAUA (XNA, 2'-OMe except dC9, dC14, dC16, dC25 and dA32; 3' idT) [ARC19475] | ≤ 5 | 
GGAAUAUACUUGGCUCGUUAGGUGCGUAUAUA (XNA, 2'-OMe except dC9, dC14, dC16, dC25 and dA30; 3' idT) [ARC19473] | ≤ 5 | 
GGAAUAUACUUGGCUCGUUAGGUGCGUAUAUA (XNA, 2'-OMe except dC9, dC14, dC16, dC25 and dA6; 3' idT) [ARC19453] | ≤ 5 | 
GGAAUAUACUUGGCUCGUUAGGUGCGUAUAUA (XNA, 2'-OMe except dC9, dC14, dC16, dC25 and dA20; 3' idT) [ARC19464] | ≤ 5 | 
GGAAUAUACUUGGCUCGUTAGGUGCGUAUAUA (XNA, 2'-OMe except dC9, dC14, dC16, dC25 and dT19; 3' idT) [ARC19463] | ≤ 5 | 
GGAAUATACUUGGCUCGUUAGGUGCGUAUAUA (XNA, 2'-OMe except dC9, dC14, dC16, dC25 and dT7; 3' idT) [ARC19454] | ≤ 5 | 
GGAAUAUACUUGGCUCGUUAGGUGCGUAUAUA (XNA, 2'-OMe except dC9, dC16, dC25; 2'-F C14; 3' idT) [ARC19494] | ≤ 5 | 
GGAAUAUACUUGGCUCGUUAGGUGCGUAUAUA (XNA, 2'-OMe except dC9, dC14, dC16, dC25 and dG13; 3' idT) [ARC19459] | ≤ 5 | 
GGAAUAUACUUGGCUCGUUAGGUGCGUAUAUA (XNA, 2'-OMe except dC9, dC14, dC16, dC25 and dU23; 3' idT) [ARC33874] | ≤ 5 | 
GGAAUAUACUUGCUCGUUAGGUGCGUAUAUA (mixed, 2'-OMe A/G/U, 2'-deoxy C, 3' idT) [ARC33127] |  | > 5 fold IC50 of ARC17480
GGAAUAUACUUGGCUGUUAGGUGCGUAUAUA (mixed, 2'-OMe A/G/U, 2'-deoxy C, 3' idT) [ARC33130] |  | > 5 fold IC50 of ARC17480
GGAAUAUACUUGGUCGUUAGGUGCGUAUAUA (mixed, 2'-OMe A/G/U, 2'-deoxy C, 3' idT) [ARC33128] |  | > 5 fold IC50 of ARC17480
GGAAUAUACUUGGCCGUUAGGUGCGUAUAUA (mixed, 2'-OMe A/G/U, 2'-deoxy C, 3' idT) [ARC33129] |  | > 5 fold IC50 of ARC17480
GGAAUAACUUGGCUCGUUAGGUGCGUAUAUA (mixed, 2'-OMe A/G/U, 2'-deoxy C, 3' idT) [ARC33123] |  | > 5 fold IC50 of ARC17480
GGAAUAUAUUGGCUCGUUAGGUGCGUAUAUA (mixed, 2'-OMe A/G/U, 2'-deoxy C, 3' idT) [ARC33125] |  | > 5 fold IC50 of ARC17480
GGAAUAUACUGGCUCGUUAGGUGCGUAUAUA (mixed, 2'-OMe A/G/U, 2'-deoxy C, 3' idT) [ARC33126] |  | > 5 fold IC50 of ARC17480
GGAAUAUCUUGGCUCGUUAGGUGCGUAUAUA (mixed, 2'-OMe A/G/U, 2'-deoxy C, 3' idT) [ARC33124] |  | > 5 fold IC50 of ARC17480
